First the molecules themselves.
B2: Exomyc polyprotein 3, Rrp42-P216A-HSP-NrdF (other)
chain: MGSDNEIVAGIMRDHIINLLKEGKRIDDRGFEDYRPIEIEVGVIEKAEGSALVKLGSTQVLVGIKTSLGEPFPDTPNMGVMTTNVELVPLASPTFEPGPPDERAIELARVIDRGIRESKALNLEKMVIVPGKIVRVVFIDVHVLDHDGNLMDAIGIAAIAALLNARVPKVRYNEETGEVETLDETEPLPVEKIPVPVTFAKIGNILVVDPSLDEELVMDGKITITTDETGHISAVQKSEGGAFKLEEVMYAVETAFKKAEEIRKLILEAVEKAKQLEGQKKAVRKEEELETYNPKDEFNILNPGEISDVLLLDVTPLTLGIETLGGIATPLIPRNTTIPVTKSQIFSTAEDNQTEVTISVVQGERQLAADNKMLGRFNLSGIEAAPRGLPQIEVSFSIDVNGITTVSAKDKKTGKEQTITIKNTSTLSEEEINKMIQEAEENREADALKKDKIETTVRAEGLINQLEKSITDQGEKIDPKQKELLEKQIQELKDLLKEDKTDELKLKLDQIEAAAQSFAQATAQQANTSESDPKADDSNTIDAEIKQDGSGKQDEIKKFTFDLLYKLIELEKDYLYDLYSEVGLAESAIKFSIYNAGKFLQNLGYDSPFSKEETEIEPEIFSQLSARADENHDFFSGNGSSYVMALAEETEDEDWEF
notes: also called Rrp42-HSP-NrdF

The target of experiment [1] is T1, Exomyc polyprotein 1, Rrp4-P216B-P36-MHP271.
T1 construct: Expressed in E. coli BL21 (DE3) from pMRK-EXOMYC; also called Rrp4-P36-MHP271
Nature of the experiment: co-expression in E. coli, co-retention on 500 kDa MWCO tangential filtration, SDS-PAGE.

The target in experiment [2] is B2. The experiment is described as above.

B1: Exomyc polyprotein 2, Rrp41-P46-P97R1R2 (other)
chain: MAEKPEGLKLIDENGRRIDGRKKYELRPIKMEVGVLKNANGSAYIEWGKNKIIAAVYGPRELHPKHLQRPDRAILRVRYNMAPFSVEETKSPGPDRRSIEISKVIKGALEPALILEMFPRTAIDVFIEVLQADAGTRVAGITAASLALADAGIPMRDLVAACAAGKIEGEIVLDLNKEEDNYGEADVPVAIMPLKNDITLLQMDGYLTKDEFIEAVKLAIKGAKAVYQKQREALKEKYLKIAQEVEGSPKHKVSNDSIRIALTDPDNPRWISAQKDIISYVDETEAATSTITKNQDAQNNWLTQQANLSPAPKGFIIAPENGSGVGTAVNTIADKGIPIVAYDRLITGSDKYDWYVSFDNEKVGELQGLSLAAGLLGKEDGAFDSIDQMNEYLKSHMPQETISFYTIAGSQDDNNSQYFYNGAMKVLKELMKNSQNKIIDLSPEGENAVYVPGWNYGTAGQRIQSFLTINKDPAGGNKIKAVGSKPASIFKGFLAPNDGMAEQAITKLKLEGFDTQKIFVTGQDYNDKAKTFIKDGDQNMTIYKPDKVLGKVAVEVLRVLIAKKNKASRSEVENELKAKLPNISFKYDNQTYKVQGKNINTILVSPVIVTKANVDNPGAAKPEAAKPVAAKPETTKPVAAKPEAAKPEAAKPVAAKPEAAKPVAAKPEAAKPVAAKPEAAKPVAAKPEAAKPVATNTGFSLTNKPKEDYFPMTEGSSNQGKKSEGTPNQGKKAEGAPNQGKKAEGTPNQGKKAEGAPSQQSPTTE
notes: also called Rrp41-P46-97R1R2
As to B1, the binding result in experiment [1] and in experiment [2] was “binds” in each case.
Regarding B2, in experiment [1], the binding result was “binds”.

The values above are taken from patent US20170274062A1 (OURO FINO SAUDE ANIMAL LTDA, published 2017).
